Results on three molecules are retold here after US20250369013A1 (ENSOMA, published 2025).

The experiment deals with T1, CD46 (UniProt P15529 35-343).
T1 construct: The form used in the Kd measurement is not described
T1 sequence: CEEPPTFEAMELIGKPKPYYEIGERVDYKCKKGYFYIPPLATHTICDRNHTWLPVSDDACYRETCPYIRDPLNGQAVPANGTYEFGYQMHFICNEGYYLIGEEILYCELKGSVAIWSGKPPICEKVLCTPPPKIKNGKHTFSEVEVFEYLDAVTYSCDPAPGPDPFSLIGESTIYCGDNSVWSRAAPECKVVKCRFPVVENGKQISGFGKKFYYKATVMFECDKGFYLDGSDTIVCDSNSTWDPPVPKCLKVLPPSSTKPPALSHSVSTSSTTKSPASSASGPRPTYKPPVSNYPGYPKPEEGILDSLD
The experiment can be described thus: Kd of knob for CD46; method not stated.

B1: Mutated Ad35 Knob A8: Ile192Val Ile256Val (other)
chain: LWTGINPPPNCQIVENTNTNDGKLTLVLVKNGGLVNGYVSLVGVSDTVNQMFTQKTANVQLRLYFDSSGNLLTEESDLKIPLKNKSSTATSETVASSKAFMPSTTAYPFNTTTRDSENYIHGVCYYMTSYDRSLFPLNISIMLNSRMISSNVAYAIQFEWNLNASESPESNIATLTTSPFFFSYITEDDN
For the molecule B1, binding was characterised by a dissociation constant (Kd) of 13.7 nM.

B2: wtAd35(207Asp) knob (other)
chain: LWTGINPPPNCQIVENTNTNDGKLTLVLVKNGGLVNGYVSLVGVSDTVNQMFTQKTANIQLRLYFDSSGNLLTDESDLKIPLKNKSSTATSETVASSKAFMPSTTAYPFNTTTRDSENYIHGICYYMTSYDRSLFPLNISIMLNSRMISSNVAYAIQFEWNLNASESPESNIATLTTSPFFFSYITEDDN
notes: also called B2
The molecule B2 showed a Kd of 15 nM.

B3: Ad11 (fiber knob) (other)
chain: LWTGVNPTEANCQIMNSSESNDCKLILTLVKTGALVTAFVYVIGVSNNFNMLTTHRNINFTAELFFDSTGNLLTRLSSLKTPLNHKSGQNMATGAITNAKGFMPSTTAYPFNDNSREKENYIYGTCYYTASDRTAFPIDISVMLNRRAINDETSYCIRITWSWNTGDAPEVQTSATTLVTSPFTFYYIREDD
notes: also called B7
B3 showed a Kd of 11.2 nM.
